B1: CD133 peptide ILCCVLGLL (SEQ ID NO:19) (peptide)
peptide: ILCCVLGLL
notes: synthetic nine-residue peptide of human CD133 (ProImmune)
B2: CD133 peptide SQLNSNPEL (SEQ ID NO:18) (peptide)
peptide: SQLNSNPEL
notes: as for B1
B3: CD133 peptide YLQWIEFSI (SEQ ID NO:11) (peptide)
peptide: YLQWIEFSI
notes: as for B1
B4: CD133 peptide NLLSFAYDL (SEQ ID NO:12) (peptide)
peptide: NLLSFAYDL
notes: as for B1
B5: CD133 peptide ELVHIFLYV (SEQ ID NO:16) (peptide)
peptide: ELVHIFLYV
notes: as for B1
B6: CD133 peptide RTRIKRSRK (SEQ ID NO:7) (peptide)
peptide: RTRIKRSRK
notes: as for B1
B7: CD133 peptide NLFWFGIGK (SEQ ID NO:9) (peptide)
peptide: NLFWFGIGK
notes: as for B1
B8: CD133 peptide LSSSLTSVK (SEQ ID NO:8) (peptide)
peptide: LSSSLTSVK
notes: as for B1
B9: CD133 peptide FITNNTSSV (SEQ ID NO:13) (peptide)
peptide: FITNNTSSV
notes: as for B1
B10: CD133 peptide ILAQYNTTK (SEQ ID NO:5) (peptide)
peptide: ILAQYNTTK
notes: as for B1
B11: CD133 peptide AVDVFLCSY (SEQ ID NO:1) (peptide)
peptide: AVDVFLCSY
notes: as for B1
B12: CD133 peptide LVLGSLLLL (SEQ ID NO:17) (peptide)
peptide: LVLGSLLLL
notes: as for B1
B13: CD133 peptide RVLDTPYLL (SEQ ID NO:14) (peptide)
peptide: RVLDTPYLL
notes: as for B1
B14: CD133 peptide VLDEIKSMA (SEQ ID NO:10) (peptide)
peptide: VLDEIKSMA
notes: as for B1
B15: CD133 peptide FLLPALIFA (SEQ ID NO:21) (peptide)
peptide: FLLPALIFA
notes: as for B1
B16: CD133 peptide IIDPLNLFW (SEQ ID NO:3) (peptide)
peptide: IIDPLNLFW
notes: as for B1
B17: CD133 peptide SLDFAQNFI (SEQ ID NO:15) (peptide)
peptide: SLDFAQNFI
notes: as for B1
B18: CD133 peptide SSELESLKV (SEQ ID NO:2) (peptide)
peptide: SSELESLKV
notes: as for B1
B19: CD133 peptide YLSGKLFNK (SEQ ID NO:6) (peptide)
peptide: YLSGKLFNK
notes: as for B1
B20: CD133 peptide GLLERVTRI (SEQ ID NO:20) (peptide)
peptide: GLLERVTRI
notes: as for B1
B21: CD133 peptide KLFNKSKMK (SEQ ID NO:4) (peptide)
peptide: KLFNKSKMK
notes: as for B1

Legend:
HLA-A*0201 [1] = biological target: T1, HLA-A*0201 (human); assay: REVEAL off rate analysis of peptide-MHC pentamers, 37 C, 0, 2 and 24 h
T1 construct: Class I MHC molecule of the ProImmune REVEAL assay; also called HLA-A2
Protocol: (§1) The pentamers were subjected to incubation and analysis at 37° C. to determine the stability of peptide-MHC complexes. Off-rates of the complexes were measured by REVEAL™ off rate analysis (ProImmune Ltd., Oxford, UK) after 0, 2, and 24 hours of incubation at 37° C.

HLA-A*0201 [2] = biological target: T1, HLA-A*0201; assay: REVEAL MHC binding assay, incorporation into MHC relative to positive control peptide
HLA-A*0201 [3] = biological target: T1, HLA-A*0201; assay: REVEAL off rate analysis of peptide-MHC pentamers, 37 C, 0, 2 and 24 h; * 24 h interval too short for an accurate value
Protocol: as §1

HLA-A*0301 [4] = biological target: T2, HLA-A*0301 (human); assay: REVEAL off rate analysis of peptide-MHC pentamers, 37 C, 0, 2 and 24 h
T2 construct: Class I MHC molecule of the ProImmune REVEAL assay; also called HLA-A3
Protocol: as §1

HLA-A*0301 [5] = biological target: T2, HLA-A*0301; assay: REVEAL MHC binding assay, incorporation into MHC relative to positive control peptide
HLA-A*0101 [6] = biological target: T3, HLA-A*0101 (human); assay: REVEAL off rate analysis of peptide-MHC pentamers, 37 C, 0, 2 and 24 h
T3 construct: Class I MHC molecule of the ProImmune REVEAL assay; also called HLA-A1
Protocol: as §1

HLA-A*0101 [7] = biological target: T3, HLA-A*0101; assay: REVEAL MHC binding assay, incorporation into MHC relative to positive control peptide
HLA-A*0301 [8] = biological target: T2, HLA-A*0301; assay: REVEAL off rate analysis of peptide-MHC pentamers, 37 C, 0, 2 and 24 h; * 24 h interval too short for an accurate value
Protocol: as §1

Binder	t1/2 (HLA-A*0201 [1]) [h]	% Positive Control (HLA-A*0201 [2]) [%]	further results
B1	5.63	163	–
B2	2.37	123	–
B3	–	113	t1/2 (HLA-A*0201 [3]): 83 h
B4	1.83	180	–
B5	6.86	156	–
B6	–	–	t1/2 (HLA-A*0301 [4]): 23.9 h; % Positive Control (HLA-A*0301 [5]): 87.3%
B7	–	–	t1/2 (HLA-A*0301 [4]): 3.35 h; % Positive Control (HLA-A*0301 [5]): 53.1%
B8	–	–	t1/2 (HLA-A*0301 [4]): 1.8 h; % Positive Control (HLA-A*0301 [5]): 52.5%
B9	20	107	–
B10	–	–	t1/2 (HLA-A*0301 [4]): 2.07 h; % Positive Control (HLA-A*0301 [5]): 46.6%
B11	–	–	t1/2 (HLA-A*0101 [6]): 1240 min; % Positive Control (HLA-A*0101 [7]): 58.6%
B12	8.25	102	–
B13	3.51	165	–
B14	1.43	309	–
B15	–	93.6	t1/2 (HLA-A*0201 [3]): > 120 h
B16	–	–	t1/2 (HLA-A*0101 [6]): 21 min; % Positive Control (HLA-A*0101 [7]): 91.5%
B17	15.5	115	–
B18	–	–	t1/2 (HLA-A*0101 [6]): 27.6 min; % Positive Control (HLA-A*0101 [7]): 74.1%
B19	–	–	% Positive Control (HLA-A*0301 [5]): 46.9%
B20	–	131	t1/2 (HLA-A*0201 [3]): 74.3 h
B21	–	–	% Positive Control (HLA-A*0301 [5]): 80.8%; t1/2 (HLA-A*0301 [8]): 27.8 h
